Like-named read-outs stand apart in the source and are kept apart here.

One molecule from US20180298374A1 (Merck KGaA, published 2018) can be followed below.

The target of assay [1] is T1, huEGFR (human, UniProt P00533 25-645, limits assumed, phycoerythrin conjugate (LYNX rapid RPE kit)).
T1 construct: also called EGFR-PE; EGFR-phycoerythrin

Assay [2] concerns the target T1, huEGFR. This is another data set of the same source.

B1: matuzumab (antibody, V domains shown)
VH: QVQLVQSGAEVKKPGASVKVSCKASGYTFTSHWMHWVRQAPGQGLEWIGEFNPSNGRTNYNEKFKSKATMTVDTSTNTAYMELSSLRSEDTAVYYCASRDYDYDGRYFDYWGQGTLVTVSS
VL: DIQMTQSPSSLSASVGDRVTITCSASSSVTYMYWYQQKPGKAPKLLIYDTSNLASGVPSRFSGSGSGTDYTFTISSLQPEDIATYYCQQWSSHIFTFGQGTKVEIKG
Turning to B1, the Kd (commonly the equilibrium constant for the complex coming apart) in the assay with huEGFR [1] amounted to 0.34 nM; with huEGFR [2], 113 nM.
